Measured values from patent US20220033520A1.
One block for each substance: values may come before it.

Key:
[1] = target: human FcRn complex (FCGRT and beta-2 microglobulin), recombinant, purified (human) (UniProt P55899); assay: SPR, protein L capture, pH 6, kinetic
[2] = target: human FcRn (FCGRT and beta-2 microglobulin) expressed on MDCK II cells (human) (UniProt P55899); assay: cell-based or functional assay
[3] = target: human FcRn complex (FCGRT and beta-2 microglobulin), recombinant, purified (human) (UniProt P55899); assay: SPR, protein L capture, pH 7.4, steady state

Sequence of antibody comprising wild-type hIgG4 (Table 2) (Fc): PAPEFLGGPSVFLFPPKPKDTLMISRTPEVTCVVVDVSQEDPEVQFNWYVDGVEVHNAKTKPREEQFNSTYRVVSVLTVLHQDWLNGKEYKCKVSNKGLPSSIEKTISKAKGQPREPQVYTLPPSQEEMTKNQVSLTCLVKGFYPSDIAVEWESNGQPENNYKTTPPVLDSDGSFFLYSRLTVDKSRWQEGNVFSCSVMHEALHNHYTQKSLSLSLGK

Substance: anti-BACE1 hIgG1 antibody, Fc modification S4 (H310A)
- Transcytosis Normalized to WT (normalized to WT) [2]: 1.1

Substance: anti-BACE1 hIgG1 antibody, Fc modification S8 (H433K)
- Kd [1]: 363 nM
- koff [1]: 0.0048 s⁻¹
- kon [1]: 13200 M⁻¹ s⁻¹
- Transcytosis Normalized to WT (normalized to WT) [2]: 2.9

Substance: anti-BACE1 hIgG1 antibody, Fc modification T6 (M252Y/N434Y/Y436I)
- Kd [3]: 459 nM
- Transcytosis Normalized to WT (normalized to WT) [2]: 133

Substance: anti-BACE1 hIgG1 antibody, Fc modification T12 (T307Q/N434Y/Y436I)
- Transcytosis Normalized to WT (normalized to WT) [2]: 112

Substance: anti-BACE1 hIgG1 antibody, Fc modification T18 (Q311A/M428L/N434Y)
- Transcytosis Normalized to WT (normalized to WT) [2]: 140

Substance: anti-BACE1 hIgG1 antibody, Fc modification T26 (H433K/N434Y/Y436I)
- Transcytosis Normalized to WT (normalized to WT) [2]: 71

Substance: anti-BACE1 hIgG4 antibody, Fc modification T6-IgG4 (M252Y/N434Y/Y436I)
- Kd [3]: 412 nM
- Transcytosis Normalized to WT (normalized to WT) [2]: 66

Substance: antibody comprising wild-type hIgG1 (Table 2)
- Kd [1]: 732 nM
- koff [1]: 0.0164 s⁻¹
- kon [1]: 22300 M⁻¹ s⁻¹
- Transcytosis Normalized to WT (normalized to WT) [2]: 1

Substance: antibody comprising wild-type hIgG4 (Table 2)
- Kd [1]: 563 nM
- koff [1]: 0.0119 s⁻¹
- kon [1]: 21100 M⁻¹ s⁻¹
- Transcytosis Normalized to WT (normalized to WT) [2]: 1

More lines, now with the values ahead:

- Kd [1]: 92.2 nM
- koff [1]: 0.00192 s⁻¹
- kon [1]: 20800 M⁻¹ s⁻¹
- Transcytosis Normalized to WT (normalized to WT) [2]: 9.4
Substance: anti-BACE1 hIgG1 antibody, Fc modification D7 (H433K/N434Y)

- Kd [1]: 12.4 nM
- koff [1]: 0.0074 s⁻¹
- kon [1]: 595000 M⁻¹ s⁻¹
- Kd [3]: 760 nM
- Transcytosis Normalized to WT (normalized to WT) [2]: 92
Substance: anti-BACE1 hIgG1 antibody, Fc modification D92 (M252W/N434W)

- Kd [1]: 57.3 nM
- koff [1]: 0.0107 s⁻¹
- kon [1]: 186000 M⁻¹ s⁻¹
- Kd [3]: 1270 nM
- Transcytosis Normalized to WT (normalized to WT) [2]: 159
Substance: anti-BACE1 hIgG1 antibody, Fc modification Q4 (M252Y/Q311I/M428L/N434Y)

- Kd [1]: 117 nM
- koff [1]: 0.00172 s⁻¹
- kon [1]: 14700 M⁻¹ s⁻¹
- Transcytosis Normalized to WT (normalized to WT) [2]: 1.7
Substance: anti-BACE1 hIgG1 antibody, Fc modification S1 (M252Y)

- Kd [1]: 303 nM
- koff [1]: 0.00316 s⁻¹
- kon [1]: 10400 M⁻¹ s⁻¹
- Transcytosis Normalized to WT (normalized to WT) [2]: 1.7
Substance: anti-BACE1 hIgG1 antibody, Fc modification S2 (N286E)

- Kd [1]: 171 nM
- koff [1]: 0.00157 s⁻¹
- kon [1]: 9190 M⁻¹ s⁻¹
- Transcytosis Normalized to WT (normalized to WT) [2]: 1.7
Substance: anti-BACE1 hIgG1 antibody, Fc modification S6 (Q311I)

- Kd [1]: 178 nM
- koff [1]: 0.00202 s⁻¹
- kon [1]: 11300 M⁻¹ s⁻¹
- Transcytosis Normalized to WT (normalized to WT) [2]: 2
Substance: anti-BACE1 hIgG1 antibody, Fc modification S7 (M428L)

- Kd [1]: 100 nM
- koff [1]: 0.0419 s⁻¹
- kon [1]: 418000 M⁻¹ s⁻¹
- Transcytosis Normalized to WT (normalized to WT) [2]: 6.3
Substance: anti-BACE1 hIgG1 antibody, Fc modification S9 (N434F)

- Kd [1]: 54.9 nM
- koff [1]: 0.051 s⁻¹
- kon [1]: 929000 M⁻¹ s⁻¹
- Kd [3]: 5530 nM
- Transcytosis Normalized to WT (normalized to WT) [2]: 26
Substance: anti-BACE1 hIgG1 antibody, Fc modification S10 (N434W)

- Kd [1]: 73.6 nM
- koff [1]: 0.0141 s⁻¹
- kon [1]: 191000 M⁻¹ s⁻¹
- Transcytosis Normalized to WT (normalized to WT) [2]: 7.8
Substance: anti-BACE1 hIgG1 antibody, Fc modification S11 (N434Y)

- Kd [1]: 201 nM
- koff [1]: 0.00193 s⁻¹
- kon [1]: 9590 M⁻¹ s⁻¹
- Transcytosis Normalized to WT (normalized to WT) [2]: 1.8
Substance: anti-BACE1 hIgG1 antibody, Fc modification S12 (Y436I)

- Kd [1]: 99.2 nM
- koff [1]: 0.00371 s⁻¹
- kon [1]: 37400 M⁻¹ s⁻¹
- Transcytosis Normalized to WT (normalized to WT) [2]: 5.1
Substance: antibody comprising modified Fc M428L/N434A (LA) (Table 2)
